Earlier results, collected in article PMC3022782.

Molecular target: β sliding clamp rim (Escherichia coli) (UniProt P0A988)
UniProt P0A988, sequence (P0A988 whole entry): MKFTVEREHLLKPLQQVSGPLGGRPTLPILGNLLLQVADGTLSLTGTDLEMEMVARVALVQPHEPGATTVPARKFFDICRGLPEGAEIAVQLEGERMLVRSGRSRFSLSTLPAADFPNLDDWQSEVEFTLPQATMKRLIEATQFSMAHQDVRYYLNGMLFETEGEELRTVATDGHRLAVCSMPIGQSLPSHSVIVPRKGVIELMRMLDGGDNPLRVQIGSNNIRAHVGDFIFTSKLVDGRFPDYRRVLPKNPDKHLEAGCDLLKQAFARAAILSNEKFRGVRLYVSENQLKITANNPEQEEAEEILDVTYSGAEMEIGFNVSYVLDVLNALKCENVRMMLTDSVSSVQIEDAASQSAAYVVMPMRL

For Pol IV (from UniProt Q47155), the Kd is given as 1000 nM.
